From publication PMC4265319

How the values were obtained:
[1] = molecular target: T1, KdpE (Staphylococcus aureus) (UniProt Q2FWH6); assay: EMSA; details: EMSA 25 C, 20 min, 20 ul, 1x binding buffer, 2.5% glycerol, 50 ng/ml poly(dI-dC), 0.05% NP-40; CymR/KdpE buffer: 20 mM Tris-HCl pH 7.5, 10 mM MgCl2, 100 mM …
T1 sequence: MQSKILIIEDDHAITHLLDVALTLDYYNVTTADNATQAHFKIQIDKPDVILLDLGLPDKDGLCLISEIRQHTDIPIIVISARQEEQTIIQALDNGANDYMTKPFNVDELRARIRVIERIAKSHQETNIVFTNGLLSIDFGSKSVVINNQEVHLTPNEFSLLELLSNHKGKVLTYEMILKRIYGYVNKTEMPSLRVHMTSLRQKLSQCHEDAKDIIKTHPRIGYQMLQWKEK

[2] = molecular target: T2, LacR (Staphylococcus aureus) (UniProt Q5HE08); assay: EMSA; details: EMSA 25 C, 20 min, 20 ul, 1x binding buffer, 2.5% glycerol, 50 ng/ml poly(dI-dC), 0.05% NP-40; CymR/KdpE buffer: 20 mM Tris-HCl pH 7.5, 10 mM MgCl2, 100 mM …
T2 sequence: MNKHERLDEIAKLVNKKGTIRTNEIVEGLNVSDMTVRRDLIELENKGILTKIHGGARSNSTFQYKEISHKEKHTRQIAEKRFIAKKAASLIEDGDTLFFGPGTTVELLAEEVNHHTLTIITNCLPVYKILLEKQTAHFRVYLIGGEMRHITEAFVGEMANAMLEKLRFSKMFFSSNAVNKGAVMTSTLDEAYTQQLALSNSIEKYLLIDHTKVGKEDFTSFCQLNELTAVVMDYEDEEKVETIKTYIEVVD

Sequence	binding [1]	binding [2]
GACATAACCTTCACCTCGATAGCAATATCATAATATTCTTCACAATTAAATGCTATAAAATTTATTTCTGCATACACATCTTAATGATTTCTTAATAACTAAGTTTGAAAATTAATATTTCTCTCATAAACAAGTTGTTACGATGTTGTTGTGTTGTAAGGAGGTTATGGCAATGCTCATCGTTTTATTACTGGTAGTTATTGCATTAGTTTTGTATTTATTTTATGCCTTAATTCGTAGTGAAAAATTTTAGAAATATATTAAGTGAGGGTTATCATGG (double strand) [kdpFABC promoter]	binds	
GTAATCCATTGTTACCTCCCGATTACAAATTTTGTTCTATCTACTATTTAGCAAAGTAATAATACATCATATCACATTAAATTAATTACTTATGTCTTATATTTAACACTTAATTTAGCGATTACGCAAATGAATGATTTTTCTAAATATTTTATTCTAACTTTATCCGGAAATATTTGTTATACGTATAACTTGGAGAATGACTACTTGAAATTTAATGACGTATACAACAAACACCAC (double strand) [sigS promoter]	binds	no binding
